Data on 167 variants can be found in the Human Domainome abundance scans (Beltran et al. 2025).

The labels stand for the following.
B1: Poly(rC)-binding protein 1, residues 278 to 350; numbered along this chain, Q15365 (parent)
chain: TQTTHELTIPNNLIGCIIGRQGANINEIRQMSGAQIKIANPVEGSSGRQVTITGSAASISLAQYLINARLSSE

± gives the uncertainty stated by the source.

Variants of B1 are the subject of this series. Briefly: abundance fitness (aPCA) (normalised: wild type 0, dead -1); higher = more abundant; growth selection in yeast, the domain comes from the species named. Particulars: Homo sapiens.
For the variant I66W, the abundance fitness was -1.2 ± 0.35.

In the case of I66A, the abundance fitness was -0.438 ± 0.1.

As for I66P, the abundance fitness was -0.459 ± 0.15.

For the variant I66M, the abundance fitness was -0.094 ± 0.16.

On to I66F, for which the abundance fitness was -0.414 ± 0.22.

For the variant I66R, the abundance fitness is -0.996 ± 0.23.

Turning to G22I, the abundance fitness is -1.04 ± 0.27.

In the case of G22S, the abundance fitness is 0.01 ± 0.038.

With I18H, the abundance fitness is -0.767 ± 0.15.

Turning to I18S, the abundance fitness is -0.433 ± 0.059.

T3M: the abundance fitness was determined as 0.161 ± 0.068.

For T3C, the abundance fitness was -0.009 ± 0.09.

As to T3R, the abundance fitness worked out at 0.119 ± 0.035.

As for T3D, the abundance fitness came to 0.053 ± 0.091.

As to T3Q, the abundance fitness stood at 0.11 ± 0.051.

In the case of I36G, the abundance fitness was -0.782 ± 0.062.

Consider I36N, for which the abundance fitness is -0.689 ± 0.29.

Regarding I36K, the abundance fitness is -1.14 ± 0.27.

Regarding I36H, the abundance fitness worked out at 0.062 ± 0.43.

I36A: the abundance fitness was -0.97 ± 0.14.

With I36D, the abundance fitness was -0.852 ± 0.42.

Take I36C: the abundance fitness was -0.276 ± 0.2.

With I36W, the abundance fitness was -1.04 ± 0.12.

In the case of Q35N, the abundance fitness was found to be 0.088 ± 0.12.

As for Q35T, the abundance fitness amounted to 0.017 ± 0.072.

With Q35C, the abundance fitness was -0.15 ± 0.09.

Take Q35Y: the abundance fitness is -0.231 ± 0.28.

Q35P: the abundance fitness is -0.641 ± 0.099.

With Q35G, the abundance fitness is -0.13 ± 0.039.

Consider Q35M, for which the abundance fitness was -0.09 ± 0.047.

In the case of Q35R, the abundance fitness amounted to 0.023 ± 0.044.

As to M31K, the abundance fitness was 0.162 ± 0.061.

M31T: the abundance fitness was -0.051 ± 0.073.

As to M31F, the abundance fitness is -0.109 ± 0.24.

M31R: the abundance fitness turned out to be 0.088 ± 0.032.

N26T: the abundance fitness was -0.022 ± 0.049.

With N26F, the abundance fitness was -0.354 ± 0.1.

For the variant N26E, the abundance fitness is -0.035 ± 0.046.

Turning to N26R, the abundance fitness amounted to 0.032 ± 0.028.

As for N26L, the abundance fitness is -0.291 ± 0.044.

With N26Q, the abundance fitness was 0.025 ± 0.05.

N26C: the abundance fitness was -0.196 ± 0.069.

Q30P: the abundance fitness is -0.809 ± 0.16.

As to Q30K, the abundance fitness is 0.172 ± 0.092.

Regarding Q30N, the abundance fitness is 0.147 ± 0.42.

With A62K, the abundance fitness was -0.888 ± 0.14.

Turning to A62E, the abundance fitness is -0.902 ± 0.15.

Consider A62G, for which the abundance fitness was -0.622 ± 0.071.

Take A62D: the abundance fitness is -0.711 ± 0.24.

Turning to A62T, the abundance fitness was -0.794 ± 0.12.

In the case of Q63P, the abundance fitness was -1.17 ± 0.27.

Regarding Q63F, the abundance fitness is -0.175 ± 0.12.

Turning to Q63E, the abundance fitness was -0.002 ± 0.061.

Take Y64L: the abundance fitness is -0.031 ± 0.078.

In the case of Y64G, the abundance fitness worked out at 0.212 ± 0.038.

Consider Y64D, for which the abundance fitness was found to be 0.411 ± 0.072.

Turning to Y64H, the abundance fitness is 0.064 ± 0.14.

Regarding L7Q, the abundance fitness was -0.382 ± 0.096.

As for L7K, the abundance fitness is -0.53 ± 0.18.

In the case of L7Y, the abundance fitness was -0.436 ± 0.13.

Take L7T: the abundance fitness was -0.447 ± 0.079.

Turning to L7D, the abundance fitness is -0.616 ± 0.15.

On to G15M, for which the abundance fitness was 0 ± 0.065.

On to G15N, for which the abundance fitness is 0.016 ± 0.15.

N11R: the abundance fitness was -0.264 ± 0.049.

Regarding N11V, the abundance fitness was -0.352 ± 0.061.

Regarding N11Y, the abundance fitness is -0.549 ± 0.26.

For N11D, the abundance fitness came out at 0.186 ± 0.076.

For the variant N11I, the abundance fitness is -0.21 ± 0.21.

In the case of T1E, the abundance fitness stood at 0.106 ± 0.085.

In the case of T1C, the abundance fitness is -0.218 ± 0.12.

As for T1S, the abundance fitness was found to be 0.012 ± 0.061.

For the variant L13C, the abundance fitness was -0.21 ± 0.12.

L13R: the abundance fitness is -0.082 ± 0.032.

As for L13Q, the abundance fitness is 0.14 ± 0.063.

Turning to L13K, the abundance fitness came out at 0.062 ± 0.054.

Regarding L13E, the abundance fitness was -0.06 ± 0.05.

On to N12S, for which the abundance fitness is -0.022 ± 0.047.

As for N12T, the abundance fitness was -0.053 ± 0.062.

In the case of N12H, the abundance fitness is -0.009 ± 0.1.

For the variant N12M, the abundance fitness is -0.316 ± 0.083.

On to P10A, for which the abundance fitness is -0.117 ± 0.05.

On to P10C, for which the abundance fitness is -0.577 ± 0.13.

Take P10N: the abundance fitness is -0.938 ± 0.37.

For V42G, the abundance fitness was -0.13 ± 0.035.

With V42I, the abundance fitness is -0.007 ± 0.11.

Take V42E: the abundance fitness was -0.011 ± 0.044.

As to S60G, the abundance fitness is -0.05 ± 0.034.

On to S60P, for which the abundance fitness is -0.635 ± 0.084.

Turning to S60A, the abundance fitness was -0.064 ± 0.037.

As for S60Q, the abundance fitness is 0.023 ± 0.058.

In the case of S60E, the abundance fitness turned out to be 0.124 ± 0.042.

Turning to S60L, the abundance fitness was -0.354 ± 0.075.

Regarding S60D, the abundance fitness is 0.191 ± 0.061.

For the variant I59C, the abundance fitness was 0.098 ± 0.068.

I59V: the abundance fitness turned out to be 0.063 ± 0.047.

In the case of I59K, the abundance fitness was -0.323 ± 0.092.

In the case of I59G, the abundance fitness was -0.66 ± 0.051.

E6T: the abundance fitness was found to be 0.294 ± 0.074.

As for E6C, the abundance fitness came out at 0.168 ± 0.061.

As to E6F, the abundance fitness is -0.088 ± 0.14.

For E6H, the abundance fitness is 0.232 ± 0.11.

For the variant E6S, the abundance fitness is 0.08 ± 0.055.

Regarding T51W, the abundance fitness was -0.063 ± 0.058.

With T51V, the abundance fitness was -0.027 ± 0.033.

On to T51R, for which the abundance fitness is -0.054 ± 0.043.

For T51M, the abundance fitness was -0.066 ± 0.043.

Consider T51H, for which the abundance fitness was -0.287 ± 0.17.

In the case of R29A, the abundance fitness was -0.059 ± 0.033.

Regarding R29F, the abundance fitness is -0.271 ± 0.15.

As for R29V, the abundance fitness is -0.129 ± 0.036.

For R29C, the abundance fitness was -0.205 ± 0.059.

On to R29D, for which the abundance fitness is -0.631 ± 0.17.

On to S71F, for which the abundance fitness was -0.21 ± 0.14.

Consider S71G, for which the abundance fitness was -0.062 ± 0.049.

Take S71H: the abundance fitness is -0.371 ± 0.28.

With G33S, the abundance fitness is -0.382 ± 0.071.

Consider G33N, for which the abundance fitness is -0.439 ± 0.13.

G33I: the abundance fitness is -0.296 ± 0.24.

G33Y: the abundance fitness was -1.01 ± 0.35.

As for G33F, the abundance fitness was -0.927 ± 0.26.

In the case of G33L, the abundance fitness is -0.61 ± 0.081.

For the variant A34V, the abundance fitness was -0.792 ± 0.15.

Take A34Q: the abundance fitness was -0.641 ± 0.12.

Consider S46I, for which the abundance fitness was -0.104 ± 0.08.

In the case of S46T, the abundance fitness is -0.063 ± 0.046.

S46W: the abundance fitness is -0.125 ± 0.069.

On to S46R, for which the abundance fitness was -0.106 ± 0.048.

For S46F, the abundance fitness was 0.002 ± 0.075.

Consider S46V, for which the abundance fitness was -0.179 ± 0.067.

With S46P, the abundance fitness is -0.029 ± 0.049.

In the case of S46A, the abundance fitness was -0.015 ± 0.051.

In the case of S46L, the abundance fitness worked out at 0.064 ± 0.041.

On to I9S, for which the abundance fitness is -0.885 ± 0.14.

As to I9W, the abundance fitness was -0.847 ± 0.12.

I9V: the abundance fitness was 0.076 ± 0.038.

Regarding I9M, the abundance fitness is -0.356 ± 0.073.

G47D: the abundance fitness was determined as 0.032 ± 0.062.

As to G47A, the abundance fitness came out at 0.013 ± 0.036.

S55P: the abundance fitness was -0.102 ± 0.049.

As for S55C, the abundance fitness is -0.252 ± 0.069.

Consider S55L, for which the abundance fitness is -0.786 ± 0.1.

Take S55K: the abundance fitness is -0.25 ± 0.046.

On to S55N, for which the abundance fitness is -0.017 ± 0.07.

In the case of S55D, the abundance fitness is -0.13 ± 0.068.

For I14Q, the abundance fitness was -0.73 ± 0.16.

For I14K, the abundance fitness is -0.855 ± 0.23.

For the variant I14T, the abundance fitness was -0.17 ± 0.09.

Turning to I14M, the abundance fitness is -0.118 ± 0.07.

For the variant I14E, the abundance fitness was -0.769 ± 0.13.

Regarding I14H, the abundance fitness was -0.485 ± 0.24.

Take I17R: the abundance fitness was -0.98 ± 0.087.

As for I17Y, the abundance fitness was -0.665 ± 0.2.

For the variant I17G, the abundance fitness is -0.585 ± 0.081.

Regarding I17K, the abundance fitness was -1.09 ± 0.29.

Consider I17W, for which the abundance fitness is -0.663 ± 0.1.

Regarding I17M, the abundance fitness was -0.562 ± 0.086.

As for A23R, the abundance fitness is 0.102 ± 0.043.

As for A23Q, the abundance fitness came out at 0.05 ± 0.061.

On to A23G, for which the abundance fitness is -0.069 ± 0.053.

For A23C, the abundance fitness was 0.018 ± 0.067.

As to A23E, the abundance fitness is 0.056 ± 0.069.

Regarding A23W, the abundance fitness was -0.419 ± 0.089.

As to I52R, the abundance fitness was -0.996 ± 0.1.

For the variant I52E, the abundance fitness is -0.732 ± 0.097.

Consider I52D, for which the abundance fitness is -0.583 ± 0.25.

Turning to I52K, the abundance fitness was -0.631 ± 0.098.
